According to US20220403048A1, “BINDING MOLECULES TO ARGINASE II [ARG2]” (Cancer Research Technology Limited, priority 2019, published 2022):

Columns and labels:
[1] = molecular target: T1, recombinant human trimeric ARG1 enzyme (Homo sapiens, UniProt P05089); assay: Direct binding HTRF assay, human trimeric ARG1; settings: purified scFv, FIG. 1B
T1 construct: Avi tag (N); His10 (after a GGG linker) (C); made in house; host or cells: E. coli BL21 (DE3)
T1 sequence (P05089 with tags, fused parts or gaps): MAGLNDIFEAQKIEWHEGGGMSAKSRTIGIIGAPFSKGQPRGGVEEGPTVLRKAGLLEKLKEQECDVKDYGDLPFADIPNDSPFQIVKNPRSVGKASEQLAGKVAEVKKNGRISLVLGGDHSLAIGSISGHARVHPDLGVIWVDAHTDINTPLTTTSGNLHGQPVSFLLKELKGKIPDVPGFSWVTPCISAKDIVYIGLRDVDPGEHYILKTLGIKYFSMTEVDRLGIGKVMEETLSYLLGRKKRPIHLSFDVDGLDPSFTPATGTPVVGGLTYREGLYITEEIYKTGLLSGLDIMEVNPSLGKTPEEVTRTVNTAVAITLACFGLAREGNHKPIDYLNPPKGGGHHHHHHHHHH

monomeric ARG2 = molecular target: T2, monomeric ARG2 (Homo sapiens, UniProt P78540, E275Q); assay: Human monomeric ARG2 enzyme inhibition assay; format: biochemical; settings: purified recombinant human IgG1, FIG. 5
T2 construct: human ARG2 (aa23-354); His10 (C); made in house; host or cells: E. coli
T2 sequence (P78540 23-354 E275Q): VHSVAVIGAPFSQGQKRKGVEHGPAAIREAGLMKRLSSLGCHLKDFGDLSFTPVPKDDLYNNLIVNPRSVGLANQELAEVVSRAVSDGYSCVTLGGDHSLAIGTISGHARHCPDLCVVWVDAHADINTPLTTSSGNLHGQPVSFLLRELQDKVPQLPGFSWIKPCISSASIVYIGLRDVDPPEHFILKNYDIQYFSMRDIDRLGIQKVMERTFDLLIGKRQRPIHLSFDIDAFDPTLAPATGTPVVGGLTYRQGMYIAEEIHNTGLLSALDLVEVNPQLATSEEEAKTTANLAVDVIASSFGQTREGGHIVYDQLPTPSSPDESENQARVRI
Protocol: ARG2 specific recombinant IgG1 were screened for their ability to inhibit enzymatic activity of monomeric ARG2. In this assay, the ability of ARG2 specific recombinant IgG1 to inhibit the enzymatic activity of monomeric ARG2 was determined by measuring the production of urea, the product of L-arginine turnover by monomeric ARG2.
IC50 values were determined by testing a dilution series of the ARG2 specific recombinant IgG1, prepared in TBS.
10 μl of ARG2 specific recombinant IgG1 (dilution series) were added to a Greiner Bio-One® 384 well assay plate (Greiner Bio-one, UK; cat: 781901). […]
Urea was detected by the simultaneous addition of equal volumes of O-Phthaldialdehyde (1.5 mM O-Phthaldialdehyde, 7% H2SO4, 0.03% Brij L23) and N-(1-Napthyl)ethylenediamine (1.66 mM N-(1-Napthyl)ethylenediamine, 81 mM Boric acid, 21% H2SO4, 0.03% Brij L23) followed by an 18 minute incubation at room temperature before the colorimetric product was quantified on the Pherastar by measuring absorbance at 505 nm.
ARG2 specific recombinant IgG1 were tested alongside N-Hydroxyl-L-Arginine (a small molecule competitive inhibitor of ARG2) as a positive control and NIP228 (irrelevant isotype control antibody) as a negative control. Data points were plotted and IC50 values determined using a four parameter fit in GraphPad Prism (FIG. 5).

- binding to biotinylated recombinant human trimeric ARG1 enzyme [1]: no binding
- inhibition of the activity of human monomeric ARG2 (monomeric ARG2): inhibited
B1: C0020065: anti-ARG2 antibody, alternate lead isolation clone, VH SEQ ID NO: 2, VL SEQ ID NO: 7 (antibody, listed as Homo sapiens, V domains shown)
VH: GVNLRESGGGVVQPGRSLRLSCAASGFTFSSYAMHWVRQAPGKGLEWVAVISYDGSNKYYVDSVKGRFTISRDNSKNTLYLQMNSLRAEDTAVYYCARDSSQLWFDYWGRGTLVTVSS
VL: QSVVTQPPSVSGAPGQRVTISCTGSSSNIGTGYDVHWYQQLPGTAPKLLIYGNSNRPSGVPDRFSGSKSGTSASLAITGLQAEDEADYYCQSYDSSLSGSVVFGGGTQLTVL
modifications: C0020065
